Test results taken from article PMC2700083, “A covalent peptide inhibitor of RGS4 identified in a focused one-bead, one compound library screen” (BMC Pharmacology, 2009).
Bridges are numbered along the chain shown (N, C = ends).

B4: MBP-RGS4Δ51N C148A (domain or fragment)
chain: not shown
modifications: biotin (sites not given)
notes: RGS4Δ51N; source: expressed, purified and labeled as described previously [5]; not shown: MBP, N-terminal, kept
B6: MBP-RGS4Δ51N, wild type, biotinylated (domain or fragment, UniProt P49799 52-205, looked up)
chain: SQEEVKKWAESLENLINHECGLAAFKAFLKSEYSEENIDFWISCEEYKKIKSPSKLSPKAKKIYNEFISVQATKEVNLDSCTREETSRNMLEPTITCFDEAQKKIFNLMEKDSYRRFLKSRFYLDLTNPSSCGAEKQKGAKSSADCTSLVPQCA
modifications: biotin (sites not given)
notes: RGS4 from which the amphipathic N-terminal helix has been removed (RGS4Δ51N); Rat RGS4 is surmised from the group's earlier work; His6 lies between MBP and RGS4 (MBP-His6-RGS4Δ51N) with a TEV site; also called wild type RGS4-biotin; biotin-RGS4; source: expressed, purified and labeled as described previously [5]; not shown: MBP, N-terminal, kept
B7: MBP-RGS4Δ51N C95A (domain or fragment, UniProt P49799 52-205, looked up)
chain: SQEEVKKWAESLENLINHECGLAAFKAFLKSEYSEENIDFWISAEEYKKIKSPSKLSPKAKKIYNEFISVQATKEVNLDSCTREETSRNMLEPTITCFDEAQKKIFNLMEKDSYRRFLKSRFYLDLTNPSSCGAEKQKGAKSSADCTSLVPQCA
modifications: biotin (sites not given)
notes: as for B4
B8: MBP-RGS4Δ51N C71A (domain or fragment, UniProt P49799 52-205, looked up)
chain: SQEEVKKWAESLENLINHEAGLAAFKAFLKSEYSEENIDFWISCEEYKKIKSPSKLSPKAKKIYNEFISVQATKEVNLDSCTREETSRNMLEPTITCFDEAQKKIFNLMEKDSYRRFLKSRFYLDLTNPSSCGAEKQKGAKSSADCTSLVPQCA
modifications: biotin (sites not given)
notes: as for B4
B9: MBP-RGS4Δ51N C132A (domain or fragment, UniProt P49799 52-205, looked up)
chain: SQEEVKKWAESLENLINHECGLAAFKAFLKSEYSEENIDFWISCEEYKKIKSPSKLSPKAKKIYNEFISVQATKEVNLDSATREETSRNMLEPTITCFDEAQKKIFNLMEKDSYRRFLKSRFYLDLTNPSSCGAEKQKGAKSSADCTSLVPQCA
modifications: biotin (sites not given)
notes: as for B4

Tests used:
Conditions in all cases: both partners purified
[1] = target: T1, RGS7 RGS domain (aa: 305–453), MBP fusion (human, UniProt P49802 305-453); test: FCPIA (flow cytometry protein interaction assay, Luminex beads); dose response curves for 5nd with different RGS proteins on beads and labeled Gαo; curves constrained to 100% and 0%
T1 construct: RGS7, human, RGS domain, aa 305-453; source: expressed, purified and labeled as described previously [5]
T1 sequence (looked up): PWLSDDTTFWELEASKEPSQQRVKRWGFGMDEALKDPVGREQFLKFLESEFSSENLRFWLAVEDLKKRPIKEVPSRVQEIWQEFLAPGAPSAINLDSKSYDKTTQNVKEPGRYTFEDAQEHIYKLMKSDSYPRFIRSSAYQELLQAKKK

[2] = target: T2, RGS19ΔC11 (amino acids 1–209), MBP fusion (human, UniProt P49795 1-209); test: as above
T2 construct: RGS19, human, ΔC11, amino acids 1-209; source: expressed, purified and labeled as described previously [5]
T2 sequence (looked up): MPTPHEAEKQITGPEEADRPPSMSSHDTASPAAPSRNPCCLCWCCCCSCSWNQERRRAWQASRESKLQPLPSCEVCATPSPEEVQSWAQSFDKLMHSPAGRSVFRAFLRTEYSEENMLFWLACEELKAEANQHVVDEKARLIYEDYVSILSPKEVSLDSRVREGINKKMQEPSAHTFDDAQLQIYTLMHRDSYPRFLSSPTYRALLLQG

[3] = target: T3, RGS8 full length, MBP fusion (human, UniProt P57771 1-180, biotin (sites not given)); test: as above
T3 construct: RGS8, human, full length; source: expressed, purified and labeled as described previously [5]
T3 sequence (looked up): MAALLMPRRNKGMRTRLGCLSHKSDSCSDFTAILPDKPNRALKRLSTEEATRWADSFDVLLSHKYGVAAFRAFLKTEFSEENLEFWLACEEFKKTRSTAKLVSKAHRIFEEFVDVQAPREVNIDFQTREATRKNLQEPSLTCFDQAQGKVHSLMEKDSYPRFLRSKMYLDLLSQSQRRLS

[4] = target: B6; test: as above
[5] = target: T4, RGS16 full length, MBP fusion (human, UniProt O15492 1-202); test: as above
T4 construct: RGS16, human, full length; source: expressed, purified and labeled as described previously [5]
T4 sequence (looked up): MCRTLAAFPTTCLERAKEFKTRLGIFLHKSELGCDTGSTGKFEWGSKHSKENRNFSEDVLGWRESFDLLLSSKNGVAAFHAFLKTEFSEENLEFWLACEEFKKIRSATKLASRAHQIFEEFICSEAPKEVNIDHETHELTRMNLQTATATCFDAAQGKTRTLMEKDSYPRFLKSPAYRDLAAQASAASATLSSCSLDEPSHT

[6] = target: B9; test: FCPIA (flow cytometry protein interaction assay, Luminex beads); dose curves of 5nd on RGS4 cysteine mutants (5 nM, or 20 nM for the mutants with no Cys in the domain or the C-terminus) and labeled Gαo; curves constrained to 100% and 0%
[7] = target: B7; test: as above
[8] = target: B6; test: as above
[9] = target: B8; test: as above
[10] = target: B4; test: as above
[11] = target: B6; test: FCPIA (flow cytometry protein interaction assay, Luminex beads); competition at one peptide concentration (50 μM unless the cell says otherwise); 5 nM wild type RGS4-biotin on avidin beads, 25 nM Gαo-Alexa Fluor 532, with AMF (AlCl3, MgCl2, NaF and GDP)
[12] = target: T5, Gαo, Alexa Fluor 532-labeled (UniProt P59215 1-354, Alexa Fluor 532 label (sites not given)); test: FCPIA (flow cytometry protein interaction assay, Luminex beads); Gαo affinities for RGS4Δ51N wild type and mutants on beads, with AMF
T5 construct: G protein alpha subunit Gαo; Used in the presence of AMF (AlCl3, MgCl2, NaF and GDP) to put it into a transition state-like conformation; source: expressed, purified and labeled as described previously [5]
T5 sequence (P59215 whole entry): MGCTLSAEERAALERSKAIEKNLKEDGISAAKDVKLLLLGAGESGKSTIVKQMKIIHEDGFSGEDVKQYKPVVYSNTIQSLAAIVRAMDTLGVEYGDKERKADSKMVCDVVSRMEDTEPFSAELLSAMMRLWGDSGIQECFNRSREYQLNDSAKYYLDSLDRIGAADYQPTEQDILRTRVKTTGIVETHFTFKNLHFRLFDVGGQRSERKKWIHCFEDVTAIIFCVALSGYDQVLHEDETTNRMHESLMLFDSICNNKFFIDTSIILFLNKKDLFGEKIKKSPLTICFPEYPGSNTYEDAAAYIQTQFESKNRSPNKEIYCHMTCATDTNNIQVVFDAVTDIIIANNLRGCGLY

B1: Peptide 5nd (Tyr-Trp-c[Cys-Lys-Gly-Leu-Cys]-Lys-NH2, S-S) (peptide)
peptide: H-YWCKGLCK-NH2
modifications: disulfide 3-7
SMILES: CC(C)C[C@@H]1NC(=O)CNC(=O)[C@H](CCCCN)NC(=O)[C@@H](NC(=O)[C@H](Cc2c[nH]c3ccccc23)NC(=O)[C@@H](N)Cc2ccc(O)cc2)CSSC[C@@H](C(=O)N[C@@H](CCCCN)C(N)=O)NC1=O
notes: hit peptide from the focused OBOC library screen; also called peptide 7nd in Roof et al, 2008; hit 5; source: synthetic peptide
IC50 [1]: ~175 µM | logIC50 [1]: ~-3.76 log M | IC50 [2]: ~145 µM | logIC50 [2]: ~-3.84 log M | IC50 [3]: 43 µM | logIC50 [3]: -4.36 log M | IC50 [4]: 28 µM | logIC50 [4]: -4.56 log M | IC50 [5]: 66 µM | logIC50 [5]: -4.18 log M | logIC50 [6]: -3.86 log M | logIC50 [7]: -4.71 log M | logIC50 [8]: -4.36 log M | logIC50 [9]: -4.34 log M | logIC50 [10]: -4.27 log M | % inhibition of RGS4-Gαo [11]: 80%

B2: Peptide 2nd (GTCFGTCW-NH2, S-S) (peptide)
peptide: H-GTCFGTCW-NH2
modifications: disulfide 3-7 (inferred)
notes: hit peptide from the focused OBOC library screen; also called hit 2; source: synthetic peptide
% inhibition of RGS4-Gαo [11]: 19%

B3: Peptide 6ad (Ac-KHCYGFCY-NH2, S-S) (peptide)
peptide: Ac-KHCYGFCY-NH2
modifications: disulfide 3-7 (inferred)
notes: hit peptide from the focused OBOC library screen; source: synthetic peptide
% inhibition of RGS4-Gαo [11]: 27%

B4
Kd [12]: 0.00684 µM

B5: Peptide 6nd (KHCYGFCY-NH2, S-S) (peptide)
peptide: H-KHCYGFCY-NH2
modifications: disulfide 3-7 (inferred)
notes: hit peptide from the focused OBOC library screen; also called hit 6; peptide 14 in Roof et al 2008; source: synthetic peptide
% inhibition of RGS4-Gαo [11]: 23%

B6
Kd [12]: 0.0116 µM

B7
Kd [12]: 0.00817 µM

B8
Kd [12]: 0.0122 µM

B9
Kd [12]: 0.0079 µM

B10: Peptide 5ad (Ac-YWCKGLCK-NH2, S-S) (peptide)
peptide: Ac-YWCKGLCK-NH2
modifications: disulfide 3-7 (inferred)
notes: as for B3
% inhibition of RGS4-Gαo [11]: 37%
